According to US10702592B2, “Peptides and combination of peptides for use in immunotherapy against NHL and other cancers” (Immatics Biotechnologies GmbH, priority 2016, dated 2020):

Legend:
[1] = target: HLA-A*02:01 (Homo sapiens, UniProt P04439, D140Y/D185E/D98H/E176V/E277Q/G131W/G231S/I119V/I121R/I166T/I218V/L300P/L318F/N151K/N90K/P208A/P217A/Q86G/Q94H/R138H/R169H/T345S); assay: MHC binding assay (UV-ligand exchange, beta2m ELISA); conditions: binding to HLA-A*02:01, UV-ligand exchange
How it was run: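 Exchange yield, UV-ligand exchange: 100-fold diluted samples on streptavidin plates, 1 h at 37 °C; HRP anti-β2m 1 h at 37 °C; TMB read at 450 nm.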

[2] = system: CD8+ T cells; assay: In vitro T-cell priming immunogenicity assay (aAPC with pMHC and anti-CD28, multimer staining); format: cell-based, human; conditions: HLA-A*02 restricted peptides; percentage of positive wells and donors (among evaluable)
Source text: In order to obtain information regarding the immunogenicity of the TUMAPs of the present invention, the inventors performed investigations using an in vitro T-cell priming assay based on repeated stimulations of CD8+ T cells with artificial antigen presenting cells (aAPCs) loaded with peptide/MHC complexes and anti-CD28 antibody.
In order to perform in vitro stimulations by artificial antigen presenting cells loaded with peptide-MHC complex (pMHC) and anti-CD28 antibody, the inventors first isolated CD8+ T cells from fresh HLA-A*02 leukapheresis products via positive selection using CD8 microbeads (Miltenyi Biotec, Bergisch-Gladbach, Germany) of healthy donors obtained from the University clinics Mannheim, Germany, after informed consent.
PBMCs and isolated CD8+ lymphocytes were incubated in T-cell medium (TCM) until use consisting of RPMI-Glutamax (Invitrogen, Karlsruhe, Germany) supplemented with 10% heat inactivated human AB serum (PAN-Biotech, Aidenbach, Germany), 100 U/ml Penicillin/100 μg/ml Streptomycin (Cambrex, Cologne, Germany), 1 mM sodium pyruvate (CC Pro, Oberdorla, Germany), 20 μg/ml Gentamycin (Cambrex). 2.5 ng/ml IL-7 (PromoCell, Heidelberg, Germany) and 10 U/ml IL-2 (Novartis Pharma, Nurnberg, Germany) were also added to the TCM at this step.
Generation of pMHC/anti-CD28 coated beads, T-cell stimulations and readout was performed in a highly defined in vitro system using four different pMHC molecules per stimulation condition and 8 different pMHC molecules per readout condition.
The purified co-stimulatory mouse IgG2a anti human CD28 Ab 9.3 (Jung et al., 1987) was chemically biotinylated using Sulfo-N-hydroxysuccinimidobiotin as recommended by the manufacturer (Perbio, Bonn, Germany). Beads used were 5.6 μm diameter streptavidin coated polystyrene particles (Bangs Laboratories, Illinois, USA).
800.000 beads/200 μl were coated in 96-well plates in the presence of 4×12.5 ng different biotin-pMHC, washed and 600 ng biotin anti-CD28 were added subsequently in a volume of 200 μl. Stimulations were initiated in 96-well plates by co-incubating 1×10^6 CD8+ T cells with 2×10^5 washed coated beads in 200 μl TCM supplemented with 5 ng/ml IL-12 (PromoCell) for 3 days at 37° C. Half of the medium was then exchanged by fresh TCM supplemented with 80 U/ml IL-2 and incubating was continued for 4 days at 37° C. This stimulation cycle was performed for a total of three times. For the pMHC multimer readout using 8 different pMHC molecules per condition, a two-dimensional combinatorial coding approach was used as previously described (Andersen et al., 2012) with minor modifications encompassing coupling to 5 different fluorochromes. Finally, multimeric analyses were performed by staining the cells with Live/dead near IR dye (Invitrogen, Karlsruhe, Germany), CD8-FITC antibody clone SK1 (BD, Heidelberg, Germany) and fluorescent pMHC multimers. For analysis, a BD LSRII SORP cytometer equipped with appropriate lasers and filters was used. Peptide specific cells were calculated as percentage of total CD8+ cells. Evaluation of multimeric analysis was done using the FlowJo software (Tree Star, Oregon, USA). In vitro priming of specific multimer+CD8+ lymphocytes was detected by comparing to negative control stimulations.

Peptide exchange (MHC class I binding score, peptide exchange yield) [1]	Substance	Wells positive [%] [2]
“+++” (≥50 = +++)	2 (LLSEETPSA; listed as Homo sapiens) [compound 2]	“+” (<20% = +)
“+++” (≥50 = +++)	12 (GLLLLVPLL; listed as Homo sapiens) [compound 12]	“+++” (50% - 69% = +++)
“+++” (≥50 = +++)	25 (FLDTSNQHLL; listed as Homo sapiens) [compound 25]	“+” (<20% = +)
“+++” (≥50 = +++)	22 (ALKKHLTSV; listed as Homo sapiens) [compound 22]	“++++” (≥70% = ++++)
“+++” (≥50 = +++)	9 (FLLDLDPLL; listed as Homo sapiens) [compound 9]	“++” (20% - 49% = ++)
“++++” (≥75% = ++++)	260 (RLDEAFDFV; listed as Homo sapiens) [compound 260]	“+” (<20% = +)
“++++” (≥75% = ++++)	67 (LLATVNVAL; listed as Homo sapiens) [compound 67]	“+” (<20% = +)
“+++” (≥50 = +++)	59 (RLHREVAQV; listed as Homo sapiens) [compound 59]	“+” (<20% = +)
“++++” (≥75% = ++++)	62 (ALAPYLDLL; listed as Homo sapiens) [compound 62]	“++” (20% - 49% = ++)
“+++” (≥50 = +++)	30 (ILSTLDVEL; listed as Homo sapiens) [compound 30]	“++” (20% - 49% = ++)
“+++” (≥50 = +++)	27 (FLNQESFDL; listed as Homo sapiens) [compound 27]	“+” (<20% = +)
“++++” (≥75% = ++++)	19 (VLEAILPLV; listed as Homo sapiens) [compound 19]	“+” (<20% = +)
“++++” (≥75% = ++++)	254 (FLYSETWNI; listed as Homo sapiens) [compound 254]	“+” (<20% = +)
“+++” (≥50 = +++)	28 (FLSNANPSL; listed as Homo sapiens) [compound 28]	“++++” (≥70% = ++++)
“+++” (≥50 = +++)	43 (ALLEGVKNV; listed as Homo sapiens) [compound 43]	“++” (20% - 49% = ++)
“++++” (≥75% = ++++)	53 (FLREYFERL; listed as Homo sapiens) [compound 53]	“+++” (50% - 69% = +++)
“++++” (≥75% = ++++)	262 (LMGPVVHEV; listed as Homo sapiens) [compound 262]	“++” (20% - 49% = ++)
“+++” (≥50 = +++)	21 (ALFKEAYSL; listed as Homo sapiens) [compound 21]	“+” (<20% = +)
“+++” (≥50 = +++)	8 (ALYAVIEKA; listed as Homo sapiens) [compound 8]	“+” (<20% = +)
“+++” (≥50 = +++)	3 (LTIDTQYYL; listed as Homo sapiens) [compound 3]	“+” (<20% = +)
“+++” (≥50 = +++)	35 (SLSSERYYL; listed as Homo sapiens) [compound 35]	“++++” (≥70% = ++++)
“+++” (≥50 = +++)	47 (GLLPKLTAL; listed as Homo sapiens) [compound 47]	“++” (20% - 49% = ++)
“++++” (≥75% = ++++)	68 (QIAAFLFTV; listed as Homo sapiens) [compound 68]	“+++” (50% - 69% = +++)
